Experimental data published in paper PMC6614819 (Nucleic Acids Research, 2019).

Columns and labels:
Assay in all cases: SEC
[1] = target: TmTsaD D182A (Thermotoga maritima, UniProt Q9WXZ2 1-327, D182A)
[2] = target: TmTsaD D165A (Thermotoga maritima, UniProt Q9WXZ2 1-327, D165A)
[3] = target: TmTsaD K213A (Thermotoga maritima, UniProt Q9WXZ2 1-327, K213A)
[4] = target: TmTsaD K166A (Thermotoga maritima, UniProt Q9WXZ2 1-327, K166A)
[5] = target: TmTsaD S134A (Thermotoga maritima, UniProt Q9WXZ2 1-327, S134A)
[6] = target: T. maritima TsaD (TmTsaD), wild type (Thermotoga maritima, UniProt Q9WXZ2 1-327)

Measured: binding result

Chain of TmTsaD S134A (Q9WXZ2 whole entry S134A): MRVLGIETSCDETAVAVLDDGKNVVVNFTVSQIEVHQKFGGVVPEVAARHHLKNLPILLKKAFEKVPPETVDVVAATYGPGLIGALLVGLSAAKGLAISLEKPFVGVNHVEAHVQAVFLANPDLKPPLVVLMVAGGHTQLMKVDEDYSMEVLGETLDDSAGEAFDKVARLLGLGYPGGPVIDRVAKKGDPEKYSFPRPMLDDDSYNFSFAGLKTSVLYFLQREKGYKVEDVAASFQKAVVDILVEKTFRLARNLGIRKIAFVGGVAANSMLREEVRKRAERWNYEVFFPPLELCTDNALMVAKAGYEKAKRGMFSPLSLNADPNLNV
Chain of TmTsaD K213A (Q9WXZ2 whole entry K213A): as the sequence (Q9WXZ2 whole entry S134A) above, with A134S, K213A counted along it
Chain of T. maritima TsaD (TmTsaD), wild type (Q9WXZ2 whole entry): as the sequence (Q9WXZ2 whole entry S134A) above, with A134S counted along it
Chain of TmTsaD D165A (Q9WXZ2 whole entry D165A): as the sequence (Q9WXZ2 whole entry S134A) above, with A134S, D165A counted along it
Chain of TmTsaD D182A (Q9WXZ2 whole entry D182A): as the sequence (Q9WXZ2 whole entry S134A) above, with A134S, D182A counted along it
Chain of TmTsaD K166A (Q9WXZ2 whole entry K166A): as the sequence (Q9WXZ2 whole entry S134A) above, with A134S, K166A counted along it

B1: T. maritima TsaB (TmTsaB), wild type (natural protein, Thermotoga maritima)
chain: MNVLALDTSQRIRIGLRKGEDLFEISYTGEKKHAEILPVVVKKLLDELDLKVKDLDVVGVGIGPGGLTGLRVGIATVVGLVSPYDIPVAPLNSFEMTAKSCPADGVVLVARRARKGYHYCAVYLKDKGLNPLKEPSVVSDEELEEITKEFSPKIVLKDDLLISPAVLVEESERLFREKKTIHYYEIEPLYLQKSIAELNWEKKKRG
not listed: [6]
binds: all other assays above

B2: TmTsaB deletion mutant lacking the C-terminal helix and tail Leu189-Gly206 (domain or fragment, Thermotoga maritima, UniProt Q9WZX7 1-188, looked up)
chain: MNVLALDTSQRIRIGLRKGEDLFEISYTGEKKHAEILPVVVKKLLDELDLKVKDLDVVGVGIGPGGLTGLRVGIATVVGLVSPYDIPVAPLNSFEMTAKSCPADGVVLVARRARKGYHYCAVYLKDKGLNPLKEPSVVSDEELEEITKEFSPKIVLKDDLLISPAVLVEESERLFREKKTIHYYEIEP
binds: [6]
